{"source": "the RNAGym collection of RNA variant scans (doi:10.1073/pnas.2313332121)", "parents": {"B1": {"name": "TPR t1 (parent)", "chain": "GACCAAUCUGCCCUCAGAGCUCGAGAACAUCUUCGGAUGCAGAGGAGGCAGGCUUCGGUGGCGCGAUAGCGCCAACGUCCUCAACCUCCAAUGCAUCCCACCACAUGAUGAUGCCUGAAGAGCCUUGGUUUUUUG"}}}
{"variants_of": "B1", "experiment": "polymerase ribozyme fitness, log enrichment relative to wild type (log ratio); higher = more active; in vitro selection for triplet polymerase activity", "how_it_was_run": "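The heterodimeric triplet polymerase ribozyme's subunits were each mutagenized into PCR-built libraries and transcribed. Every library was selected once, in triplicate, by annealing with a biotinylated primer, the partner subunit and triplets, incubating frozen at −7 °C, gel-excising extended constructs, capturing on streptavidin beads and running RT-PCR. Input and output libraries were Illumina-sequenced, with genotypes kept only at ≥10 input reads and ≥1 read per output. Fitness, from inverse-variance-weighted replicate averages, is the base-2 logarithm of genotype enrichment over wild-type enrichment.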"}
{"variant": "G52A G69C C72U A95C", "polymerase ribozyme fitness (log ratio)": -1.66}
{"variant": "G10U C22U G47A G63C U96A C123A", "polymerase ribozyme fitness (log ratio)": -5.69}
{"variant": "C13A A66U C101A", "polymerase ribozyme fitness (log ratio)": -4.3}
{"variant": "C73A C88A C89A U112G A119C", "polymerase ribozyme fitness (log ratio)": -2.76}
{"variant": "C8U C62U C64A", "polymerase ribozyme fitness (log ratio)": -5.43}
{"variant": "C98U G110C", "polymerase ribozyme fitness (log ratio)": -4.91}
{"variant": "C8A U30A A46C U109G A119U", "polymerase ribozyme fitness (log ratio)": -6.8}
{"variant": "G63A G71A", "polymerase ribozyme fitness (log ratio)": -2.59}
{"variant": "G47A C94A", "polymerase ribozyme fitness (log ratio)": -1.89}
{"variant": "G44C G71U A108U G110C U125A", "polymerase ribozyme fitness (log ratio)": -6.18}
{"variant": "C4G C11G C40A G60A C101G U106C", "polymerase ribozyme fitness (log ratio)": -4.19}
{"variant": "C3G C4U A83U G122U C123U", "polymerase ribozyme fitness (log ratio)": -0.882}
{"variant": "C20U C28G G69C G110U", "polymerase ribozyme fitness (log ratio)": -5.16}
{"variant": "C13G G36C C40U", "polymerase ribozyme fitness (log ratio)": -2.55}
{"variant": "C13G G51C G61C C104U G120C", "polymerase ribozyme fitness (log ratio)": -6.03}
{"variant": "A18G C70A A91C G113A", "polymerase ribozyme fitness (log ratio)": -2.9}
{"variant": "C53A C56A G58C A68U C80A", "polymerase ribozyme fitness (log ratio)": -6.56}
{"variant": "G52A G57A G127C", "polymerase ribozyme fitness (log ratio)": -2.09}
{"variant": "C20G C62U U125A", "polymerase ribozyme fitness (log ratio)": -5.73}
{"variant": "C20U C62A", "polymerase ribozyme fitness (log ratio)": -2.35}
{"variant": "G71C G113A", "polymerase ribozyme fitness (log ratio)": -1.54}
{"variant": "C8G U9C A41C A43U G52A U112A", "polymerase ribozyme fitness (log ratio)": -0.712}
{"variant": "C31U U96G", "polymerase ribozyme fitness (log ratio)": -5.37}
{"variant": "A2C U59C C73A U131A", "polymerase ribozyme fitness (log ratio)": -2.5}
{"variant": "G107A A108G G120A C124A", "polymerase ribozyme fitness (log ratio)": -3.55}
{"variant": "C13U A18U", "polymerase ribozyme fitness (log ratio)": -0.945}
{"variant": "A27U C94U U106A G110U", "polymerase ribozyme fitness (log ratio)": -2.09}
{"variant": "G127A U130C", "polymerase ribozyme fitness (log ratio)": -0.727}
{"variant": "C34A C53A C56A", "polymerase ribozyme fitness (log ratio)": -2.66}
{"variant": "C15U G17U A74C U78G C80U C115A", "polymerase ribozyme fitness (log ratio)": -2.32}
{"variant": "A111C G122U C123U U130C", "polymerase ribozyme fitness (log ratio)": -0.737}
{"variant": "C56U C76A G93A G120C", "polymerase ribozyme fitness (log ratio)": -4.53}
{"variant": "G69U C114A A121G U130G", "polymerase ribozyme fitness (log ratio)": 0.399}
{"variant": "C4A C123A", "polymerase ribozyme fitness (log ratio)": -0.283}
{"variant": "C86G G93A G113C", "polymerase ribozyme fitness (log ratio)": -4.01}
{"variant": "G10C G42U G48A", "polymerase ribozyme fitness (log ratio)": -2.39}
{"variant": "A37G C76G G113A", "polymerase ribozyme fitness (log ratio)": -1.57}
{"variant": "C12A G48U C98U", "polymerase ribozyme fitness (log ratio)": -2.11}
{"variant": "C8U C72G", "polymerase ribozyme fitness (log ratio)": 0.517}
{"variant": "G61A G117U", "polymerase ribozyme fitness (log ratio)": -2.02}
{"variant": "G61A G110U U132A", "polymerase ribozyme fitness (log ratio)": -0.611}
{"variant": "A6U G10U C13G C40U A41C G63U U78C C79A A121G", "polymerase ribozyme fitness (log ratio)": -4.13}
{"variant": "U129C", "polymerase ribozyme fitness (log ratio)": -0.185}
{"variant": "U129G", "polymerase ribozyme fitness (log ratio)": -1.1}
{"variant": "C56U C102U", "polymerase ribozyme fitness (log ratio)": -2.28}
{"variant": "C8U C28U U116A", "polymerase ribozyme fitness (log ratio)": -3.54}
{"variant": "C62G C79U", "polymerase ribozyme fitness (log ratio)": -1.14}
{"variant": "C62A U133A", "polymerase ribozyme fitness (log ratio)": -1.52}
{"variant": "G63C C85G U130G", "polymerase ribozyme fitness (log ratio)": -1.36}
{"variant": "C70U C104U U130G", "polymerase ribozyme fitness (log ratio)": -0.752}
{"variant": "C53G G61A U106G G110C C124U", "polymerase ribozyme fitness (log ratio)": -6.24}
{"variant": "C4U G110A", "polymerase ribozyme fitness (log ratio)": -1.37}
{"variant": "G44A G69U U81A", "polymerase ribozyme fitness (log ratio)": -0.353}
{"variant": "C11A G51C", "polymerase ribozyme fitness (log ratio)": -4.99}
{"variant": "C3U C86G G110C C124A", "polymerase ribozyme fitness (log ratio)": -5.57}
{"variant": "C31U G71U C124G", "polymerase ribozyme fitness (log ratio)": -3.59}
{"variant": "G61A A118G", "polymerase ribozyme fitness (log ratio)": -0.742}
{"variant": "C40G C72G C73A U78G", "polymerase ribozyme fitness (log ratio)": -4.57}
{"variant": "G61C C114U", "polymerase ribozyme fitness (log ratio)": -4}
{"variant": "C82U U96G G127U", "polymerase ribozyme fitness (log ratio)": -1.83}
{"variant": "G48U C72A G113C", "polymerase ribozyme fitness (log ratio)": -2.2}
{"variant": "C4U C49U", "polymerase ribozyme fitness (log ratio)": -0.875}
{"variant": "A43G A50U", "polymerase ribozyme fitness (log ratio)": -3.81}
{"variant": "A5G G57A G69C", "polymerase ribozyme fitness (log ratio)": -1.65}
{"variant": "C13A A16U G120C", "polymerase ribozyme fitness (log ratio)": -0.322}
{"variant": "A27G C49U", "polymerase ribozyme fitness (log ratio)": -2.19}
{"variant": "C8G C12A C20U A37C U92A G113U", "polymerase ribozyme fitness (log ratio)": -1.85}
{"variant": "G10U C82G C85U G120C", "polymerase ribozyme fitness (log ratio)": 0.866}
{"variant": "C3A A66C", "polymerase ribozyme fitness (log ratio)": -2.64}
{"variant": "G47C U55C C56A G69U C86U C123A U132A", "polymerase ribozyme fitness (log ratio)": -1.54}
{"variant": "A66U C85U G117A", "polymerase ribozyme fitness (log ratio)": -4.29}
{"variant": "A43U C49U G61A G113C C123U", "polymerase ribozyme fitness (log ratio)": -3.66}
{"variant": "G47A G58C G113A A121C U125C U131C", "polymerase ribozyme fitness (log ratio)": -0.547}
{"variant": "U7A A66U C98U", "polymerase ribozyme fitness (log ratio)": -1.89}
{"variant": "G48C C104U", "polymerase ribozyme fitness (log ratio)": -0.793}
{"variant": "C15U G52C C62G U78A", "polymerase ribozyme fitness (log ratio)": -3.9}
{"variant": "G17A U55G C123A", "polymerase ribozyme fitness (log ratio)": -2.36}
{"variant": "G48U C89U C124G G128A", "polymerase ribozyme fitness (log ratio)": -0.497}
{"variant": "A90U G113A G128A", "polymerase ribozyme fitness (log ratio)": -3.47}
{"variant": "C3U G23A G39U G48C A68G C99U C114A", "polymerase ribozyme fitness (log ratio)": -5.71}
{"variant": "C49U G51A C88A", "polymerase ribozyme fitness (log ratio)": -3.64}
{"variant": "U7C C49U A50C C99U A100U G117U", "polymerase ribozyme fitness (log ratio)": -6.3}
{"variant": "G69U C82U", "polymerase ribozyme fitness (log ratio)": -0.267}
{"variant": "G47U G52A C73A C86A", "polymerase ribozyme fitness (log ratio)": -0.962}
